Assay results as given in the supplement of paper PMC12338614.
± gives the uncertainty stated by the source.

B1: library; numbered along this chain (parent)
chain: MEVVDPQQLGMFTEGELMSVGMDTFIHRIDSTEVIYQPRRKRAKLIGKYLMGDLLGEGSYGKVKEVLDSETLCRRAVKILKKKKLRRIPNGEANVKKEIQLLRRLRHKNVIQLVDVLYNEEKQKMYMVMEYCVCGMQEMLDSVPEKRFPVCQAHGYFCQLIDGLEYLHSQGIVHKDIKPGNLLLTTGGTLKISDLGVAEALHPFAADDTCRTSQGSPAFQPPEIANGLDTFSGFKVDIWSAGVTLYNITTGLYPFEGDNIYKLFENIGKGSYAIPGDCGPPLSDLLKGMLEYEPAKRFSIRQIRQHSWFRKKHPPAEAPVPIPPSPDTKDRWRSMTVVPYLEDLHGADEDEDLFDIEDDIIYTQDFTVPGQVPEEEASHNGQRRGLPKAVCMNGTEAAQLSTKSRAEGRAPNPARKACSASSKIRRLSACKQQ

Variants of: B1
Assay: STK11 functional score (HeLa growth suppression), rescaled enrichment; synonymous median = 1, nonsense median = 0 (normalised score)
Conditions: with HeLa; variant type: missense
Method in brief: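 HeLa cells carrying an AAVS1 landing pad received codon-optimised STK11 libraries made by codon randomisation (POPCode), integrated by Bxb1, with three regions each transfected three times. Integrants that were BFP-negative and mCherry-positive were sorted by FACS 4–5 days after electroporation and then grown for about two weeks. Tiled amplicons from gDNA were sequenced on NextSeq at ~2 million reads per tile. The functional score is a wild-type-corrected log ratio of post- to pre-selection counts, rescaled to the synonymous and nonsense medians, merged across codons and replicate transfections, and given a bootstrapped error.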
K388I showed an STK11 functional score of 0.996 ± 0.29.
K423W showed an STK11 functional score of 1.49 ± 0.15.
For D258V, the STK11 functional score was 1.39 ± 0.37.
N109H gave an STK11 functional score of -0.0132 ± 0.079.
With Q220M the STK11 functional score was 1.15 ± 0.51.
Q220P showed an STK11 functional score of 0.0844 ± 0.12.
For D330M, the STK11 functional score was 1.58 ± 0.17.
In the case of D330G, the STK11 functional score is reported as 1.23 ± 0.73.
In the case of D330A, the STK11 functional score is reported as 1.18 ± 0.4.
In the case of S240Q, the STK11 functional score is reported as 0.866 ± 0.15.
Work on Q382H yielded an STK11 functional score of 1.15 ± 0.35.
S59F was tested, and the STK11 functional score was 0.672 ± 0.24.
In the case of L17A, the STK11 functional score is reported as 1.68 ± 0.37.
Work on P339N yielded an STK11 functional score of 0.366 ± 0.35.
P339V was tested, and the STK11 functional score was 0.729 ± 0.19.
Y362E showed an STK11 functional score of 0.99 ± 0.45.
With C391G the STK11 functional score was 1.22 ± 0.32.
C391M gave an STK11 functional score of 1.62 ± 0.29.
Variant V128I has an STK11 functional score of 1.63 ± 0.36.
Variant V128W has an STK11 functional score of 0.804 ± 0.43.
Variant S378D has an STK11 functional score of 1.5 ± 0.17.
In the case of S378G, the STK11 functional score is reported as 0.914 ± 0.31.
N226K showed an STK11 functional score of 0.86 ± 0.31.
Variant N226M has an STK11 functional score of 0.459 ± 0.1.
D355Q showed an STK11 functional score of 1.28 ± 0.16.
Work on D355I yielded an STK11 functional score of 1.18 ± 0.42.
P369H was tested, and the STK11 functional score was 0.727 ± 0.16.
Work on R42S yielded an STK11 functional score of 1.08 ± 0.58.
In the case of G163V, the STK11 functional score is reported as 0.0343 ± 0.1.
S419V gave an STK11 functional score of 0.892 ± 0.23.
S419I showed an STK11 functional score of 1.16 ± 0.27.
R106E was tested, and the STK11 functional score was 1.63 ± 0.29.
Work on Q152S yielded an STK11 functional score of 0.733 ± 0.51.
With K122S the STK11 functional score was 1.65 ± 0.4.
K191A showed an STK11 functional score of 1.12 ± 0.22.
K191N gave an STK11 functional score of 0.186 ± 0.16.
Variant L201I has an STK11 functional score of 1.48 ± 0.3.
L201P was tested, and the STK11 functional score was 1.36 ± 0.18.
L201K was tested, and the STK11 functional score was 1.64 ± 0.14.
For G381F, the STK11 functional score was 1.13 ± 0.42.
S31W showed an STK11 functional score of 0.921 ± 0.11.
Work on K81F yielded an STK11 functional score of 0.987 ± 0.086.
Work on P315K yielded an STK11 functional score of 1.56 ± 0.27.
Y118C gave an STK11 functional score of 0.723 ± 0.082.
Variant P144H has an STK11 functional score of 0.422 ± 0.16.
Variant R86L has an STK11 functional score of 0.854 ± 0.11.
K269A was tested, and the STK11 functional score was 0.886 ± 0.2.
For H345P, the STK11 functional score was 1.29 ± 0.27.
Work on D365L yielded an STK11 functional score of 1.27 ± 0.14.
Variant I99G has an STK11 functional score of 0.767 ± 0.3.
For F204V, the STK11 functional score was 1.24 ± 0.23.
In the case of R383E, the STK11 functional score is reported as 1.57 ± 0.27.
R383A gave an STK11 functional score of 1.44 ± 0.36.
K84G was tested, and the STK11 functional score was 1.47 ± 0.4.
Variant G385L has an STK11 functional score of 0.869 ± 0.17.
G180L showed an STK11 functional score of 1.02 ± 0.094.
With I26M the STK11 functional score was 1.63 ± 0.33.
With E33C the STK11 functional score was 1.11 ± 0.49.
In the case of E130R, the STK11 functional score is reported as 0.369 ± 0.14.
M127I showed an STK11 functional score of 0.605 ± 0.22.
S401M was tested, and the STK11 functional score was 1.44 ± 0.2.
Work on S401D yielded an STK11 functional score of 1.19 ± 0.36.
Work on Q112M yielded an STK11 functional score of 0.897 ± 0.28.
With V116N the STK11 functional score was 0.962 ± 0.81.
V116P showed an STK11 functional score of 0.975 ± 0.1.
Work on L160P yielded an STK11 functional score of -0.129 ± 0.071.
With L160H the STK11 functional score was 0.212 ± 0.28.
G10I was tested, and the STK11 functional score was 1.64 ± 0.13.
Work on E199V yielded an STK11 functional score of 1.49 ± 0.23.
With S422Y the STK11 functional score was 1.54 ± 0.15.
P324A gave an STK11 functional score of 1.35 ± 0.15.
Work on M139D yielded an STK11 functional score of -0.172 ± 0.088.
Work on F157V yielded an STK11 functional score of -0.0226 ± 0.15.
Work on P217L yielded an STK11 functional score of 0.248 ± 0.24.
For P217V, the STK11 functional score was 0.177 ± 0.36.
In the case of K48V, the STK11 functional score is reported as 1.24 ± 0.42.
K48R showed an STK11 functional score of 1.42 ± 0.54.
For K48I, the STK11 functional score was 1.34 ± 0.13.
T363F showed an STK11 functional score of 0.261 ± 0.1.
In the case of L184Q, the STK11 functional score is reported as 0.906 ± 0.2.
L80Q gave an STK11 functional score of 1.45 ± 0.09.
P411G gave an STK11 functional score of 1.14 ± 0.49.
Work on K287E yielded an STK11 functional score of 1.62 ± 0.27.
For K287F, the STK11 functional score was 1.25 ± 0.2.
For K287P, the STK11 functional score was 0.105 ± 0.28.
Variant A316G has an STK11 functional score of 1.25 ± 0.19.
For A316Y, the STK11 functional score was 1.4 ± 0.12.
F354W was tested, and the STK11 functional score was 0.138 ± 0.13.
Work on F354T yielded an STK11 functional score of 0.37 ± 0.26.
E357F gave an STK11 functional score of 0.965 ± 0.41.
Work on E357L yielded an STK11 functional score of 1.54 ± 0.31.
Q364A gave an STK11 functional score of 1.53 ± 0.15.
With Q364H the STK11 functional score was 0.685 ± 0.66.
N181K was tested, and the STK11 functional score was -0.18 ± 0.14.
In the case of Y261I, the STK11 functional score is reported as 1.62 ± 0.16.
Y261T was tested, and the STK11 functional score was 1.04 ± 0.29.
K108I was tested, and the STK11 functional score was 1.43 ± 0.34.
Variant K108T has an STK11 functional score of 1.33 ± 0.28.
With P6R the STK11 functional score was 1.29 ± 0.12.
For G188I, the STK11 functional score was 1.04 ± 0.29.
For I424T, the STK11 functional score was 1.49 ± 0.18.
H168Q showed an STK11 functional score of 0.947 ± 0.14.
Variant V390W has an STK11 functional score of 0.447 ± 0.12.
With L190V the STK11 functional score was 1 ± 0.28.
G91K showed an STK11 functional score of 0.301 ± 0.33.
H202D was tested, and the STK11 functional score was 0.804 ± 0.38.
V34Y gave an STK11 functional score of 1.05 ± 0.13.
For V34L, the STK11 functional score was 1.13 ± 0.19.
Variant P222A has an STK11 functional score of 0.83 ± 0.2.
P222S gave an STK11 functional score of 1.15 ± 0.12.
For P222I, the STK11 functional score was 1.13 ± 0.33.
With C73A the STK11 functional score was 1.69 ± 0.36.
S232K showed an STK11 functional score of 1.67 ± 0.14.
Work on H313W yielded an STK11 functional score of 1.05 ± 0.35.
In the case of V95R, the STK11 functional score is reported as 1.02 ± 0.16.
Variant V95W has an STK11 functional score of 0.452 ± 0.08.
With R415H the STK11 functional score was 1.6 ± 0.28.
Variant R415G has an STK11 functional score of 1.53 ± 0.18.
R415D showed an STK11 functional score of 1.43 ± 0.23.
Work on C134P yielded an STK11 functional score of 1.62 ± 0.19.
L263A gave an STK11 functional score of 0.39 ± 0.12.
In the case of G257L, the STK11 functional score is reported as 0.765 ± 0.18.
Variant F25I has an STK11 functional score of 1.69 ± 0.52.
Variant M129V has an STK11 functional score of 0.303 ± 0.084.
In the case of A206F, the STK11 functional score is reported as 0.495 ± 0.22.
Variant G56S has an STK11 functional score of 0.788 ± 0.12.
G56C showed an STK11 functional score of 0.475 ± 0.15.
Work on G56H yielded an STK11 functional score of 0.0953 ± 0.25.
G56Q showed an STK11 functional score of -0.0947 ± 0.16.
In the case of A410Y, the STK11 functional score is reported as 1.38 ± 0.37.
Variant A410T has an STK11 functional score of 0.749 ± 0.21.
Variant S428V has an STK11 functional score of 1.56 ± 0.28.
N94H gave an STK11 functional score of 1.35 ± 0.3.
N90K gave an STK11 functional score of -0.0122 ± 0.3.
N90W gave an STK11 functional score of 0.707 ± 0.4.
Variant K41W has an STK11 functional score of 1.49 ± 0.17.
For K312A, the STK11 functional score was 1.25 ± 0.3.
In the case of K44T, the STK11 functional score is reported as 0.843 ± 0.28.
Work on K44R yielded an STK11 functional score of 1.12 ± 0.4.
Y246S was tested, and the STK11 functional score was 0.254 ± 0.12.
Y246E gave an STK11 functional score of 0.0519 ± 0.077.
With Y246T the STK11 functional score was 0.982 ± 0.41.
For M289A, the STK11 functional score was 0.107 ± 0.21.
In the case of M289Y, the STK11 functional score is reported as -0.218 ± 0.07.
For R147C, the STK11 functional score was 1.26 ± 0.076.
D194F gave an STK11 functional score of -0.213 ± 0.11.
Work on A414M yielded an STK11 functional score of 1.56 ± 0.22.
L140I showed an STK11 functional score of 1.15 ± 0.12.
A389G gave an STK11 functional score of 1.46 ± 0.35.
In the case of M125Q, the STK11 functional score is reported as 1.68 ± 0.17.
For F264L, the STK11 functional score was 1.1 ± 0.13.
For F264W, the STK11 functional score was 0.216 ± 0.074.
For I248Y, the STK11 functional score was 0.287 ± 0.15.
A397N was tested, and the STK11 functional score was 0.679 ± 0.15.
D53M was tested, and the STK11 functional score was 0.483 ± 0.2.
Work on L50W yielded an STK11 functional score of 0.44 ± 0.99.
Work on Y126F yielded an STK11 functional score of 0.719 ± 0.13.
For Y126T, the STK11 functional score was -0.0466 ± 0.081.
Work on Y126R yielded an STK11 functional score of 0.256 ± 0.18.
Work on Y126C yielded an STK11 functional score of 0.357 ± 0.08.
V372Y was tested, and the STK11 functional score was 1.48 ± 0.33.
Work on R426H yielded an STK11 functional score of 1.61 ± 0.28.
In the case of E317L, the STK11 functional score is reported as 1.34 ± 0.27.
E317Q gave an STK11 functional score of 1.2 ± 0.4.
Work on E317P yielded an STK11 functional score of 1.6 ± 0.21.
E317F was tested, and the STK11 functional score was 0.542 ± 0.14.
With T402D the STK11 functional score was 1.21 ± 0.39.
